The data set can be described thus: label from the status in PepcDB records.
On to “MSLDRLAPAIFVFLWSTGWVTAKYAVYYTGPLTFLCLRYLLAGLLLWAICRFSGISWPKQRADVLRAILSGVFLHGIYLGMIWWAIGQGVPAAIGGIIAGLQPLMTAVAARFMIGERISPLQRAGLLLGFAGIAIAVLPKVMATGALGMSVPLYAVAVNVLGMVSVTYGTLYQKKYVHGGNIMAVATLQYVGALLVTVPFALLLEDGHVDWSLGLAATLGWSVGAISIGAVALLLYLIRRGQVSRAASLIYLVPPLAAVEAAVLFGETLTPAMIAGTVLAVTGVYLANRKPAASVAVR”, for which the protein production entry is given as “failed”.
The result for “MSLDTGVTSVMFVERSLNEIRFWSRIMKEHSFFLRLGFRCEDTQLIEEANQFYRLFEHIEQIAHSYTNETDPEQIKRFNAEVQQAATNIWGFKRKILGLILTCKLPGQNNFPLLVDHTSREADYFRKRLIQLNEGKLDALPDAIIKENVFFLRIMADHAKFIGHLLDPSERKLVDTARNFSNDFDELMYQAIDLESMKPQSQTAPLLDQFLDQNRVSVASLRDFKKTARDLIEQCKIKSIIHPLLADHVFREADRFLEIIDMYDVHLTNIQSQPREGHHHHHH” reads “not failed”; that for “MSLDYDLLIKNGQTVNGMPVEIAIKEKKIAAVAATISGSAKETIHLEPGTYVSAGWIDDHVHCFEKMALYYDYPDEIGVKKGVTTVIDAGTTGAENIHEFYDLAQQAKTNVFGLVNISKWGIVAQDELADLSKVQASLVKKAIQELPDFVVGIKARMSRTVIGDNGITPLELAKQIQQENQEIPLMVHIGSAPPHLDEILALMEKGDVLTHCFNGKENGILDQATDKIKDFAWQAYNKGVVFDIGHGTDSFNFHVAETALREGMKAASISTDIYIRNRENGPVYDLATTMEKLRVVGYDWPEIIEKVTKAPAENFHLTQKGTLEIGKDADLTIFTIQAEEKTLTDSNGLTRVAKEQIRPIKTIIGGQIYDNEGHHHHHH”, “not failed”; that for “MSLEEELRRETLKWLERIEERVKEIEGDEGFMRNIEAYISDSRYFLEKGDLVRAFECVVWAWAWLEIGLEVGKLHETAEGHHHHHH”, “not failed”.
The result for “MSLEERVKEIIAEQLGVEKEKITPEAKFVEDLGADSLDVVELIMAFEEEFGIEIPDEDAEKIQTVGDVINYLKEKVGG” reads “not failed”.
The result for “MSLFEQLDELAAQGKPAALLTIVRKDGSAPRDVGDKMIVTADEEYGTIGGGTVEHLAVQDARSVLSGADDPGIRTYELERGGNTGMVCGGEMDVFIDHVRGQAQLYIAGGGHISVELAPLAERLGYAVTVVDDREAYADPTQFPDETDVIHGEYGEALGDLPMGTETAVAVATRSGTFDQAAVAAALDGEAGYVGLVASETKANHVLDSLAESGYARRDLSRVQTPVGLDLGGSGPAAVALSVLAEVTMDRHDATGARATRLNLDDLVVVRGGGDLGSGVVYRLQQAGFPVIVTEVDQPTVVRRAVAFGAALYEDEVEVEGVTGRAAADIDEALELLADDVVPVLVDPEATVADDLDAAVLVDAIMAKGAFDTGTRREDADVVVGMGPGFEAGEDVDAVVETDRGHELGRVFYDGLEHHHHHH” reads “not failed”; that for “MSLFLKDDSIQIREVWNDNLQEEMDLIRDVVDDFPYVAMDTEFPGIVVRPVGTFKSNADYHYETLKTNVNILKMIQLGLTFSNEQGNLPTCGTDKYCIWQFNFREFDLDSDIFALDSIELLKQSGIDLAKNTLDGIDSKRFAELLMSSGIVLNENVHWVTFHSGYDFGYLLKLLTCQNLPDSQTDFFKLINVYFPTVYDIKHLMKFCNSLHGGLNKLAELLEVERVGICHQAGSDSLLTSCTFRKLKENFFVGPLHKYSGVLYGLGVENGQVAI”, “failed”; that for “MSLFRQGSQFMIIGALQLAVDCGIFIAATAAGMPAVPANLLGRIGGAMLGFWLNGRYTFAQQGDARLGWRRFRRFAAMWLTLTLISTWLLSTTVDLLGLRQAWLAKPLVEGGLAIVSFFLGRHVVYR”, “failed”.
On to “MSLHDFTLADVYRRNAALFPDRTAFMVDGVRLTHRDYLARAERLASGLLRDGVHTGDRVAILSQNCSEMIELIGAVALIGAILLPVNYRLNADEIAFVLGDGAPSVVVAGTDYRDIVAGVLPSLGGVKKAYAIGDGSGPFAPFKDLASDTPFSAPEFGAADGFVIIHTAAVGGRPRGALISQGNLLIAQSSLVDAWRLTEADVNLGMLPLFHVTGLGLMLTLQQAGGASVIAAKFDPAQAARDIEAHKVTVMAEFAPMLGNILDQAAPAQLASLRAVTGLDTPETIERFEATCPNATFWATFGQSETSGLSTFAPYRDRPKSAGRPLFWRTVAVVDAEDRPLPPGEVGEIVLRGPTVFKGYWNNAAATQHAFRNGWHHTGDMGRFDADGYLFYAGRAPEKELIKTGGENVYPAEVEGALKQHPAIADAVVIGVPDPQWSEAIKAVCVCKPGESIAADALAEFVASLIARYKKPKHVVFVEALPKDAKGAIDRAAVKTAHGQEGHHHHHH”, for which the protein production entry is “not failed”.
The result for “MSLHVTADAPGAAQGGYSVVTFRVPTESETAATTAMTVTLPNVRSARTEPMPGWTARVDRNDKSEAVSVTWTADPGNPGVQPGQFQRFVVSIGPLPSAETVSFPAEQTYSDGRVVAWNQPPAADGSEPEHPAPTLTLATAPGDTEGHHHHHH” reads “not failed”.
Regarding “MSLIASIGELLIDLISVEEGDLKDVRLFEKHPGGAPANVAVGVSRLGVKSSLISKVGNDPFGEYLIEELSKENVDTRGIVKDEKKHTGIVFVQLKGASPSFLLYDDVAYFNMTLNDINWDIVEEAKIVNFGSVILARNPSRETVMKVIKKIKGSSLIAFDVNLRLDLWRGQEEEMIKVLEESIKLADIVKASEEEVLYLENQGVEVKGSMLTAITLGPKGFRLIKNETVVDVPSYNVNPLDTTGAGDAFMAALLVGILKLKGLDLLKLGKFANLVAALSTQKRGAWSTPRKDELLKYKEAREVLAEGHHHHHH”, the protein production result was “not failed”.
As for “MSLINEATLAESIRRLRQGERATLAQAMTLVESRHPRHQALSTQLLDAIMPYCGNTLRLGVTGTPGAGKSTFLEAFGMLLIREGLKVAVIAVDPSSPVTGGSILGDKTRMNDLARAEAAFIRPVPSSGHLGGASQRARELMLLCEAAGYDVVIVETVGVGQSETEVARMVDCFISLQIAGGGDDLQGIKKGLMEVADLIVINKDDGDNHTNVAIARHMYESALHILRRKYDEWQPRVLTCSALEKRGIDEIWHAIIDFKTALTASGRLQQVRQQQSVEWLRKQTEEEVLNHLFANEDFDRYYRQTLLAVKNNTLSPRTGLRQLSEFIQTQYFDEGHHHHHH”, the protein production entry is “not failed”.
Under “MSLIYTITLNPAIDRLLFIRGELEKRKTNRVIKTEFDCGGKGLHVSGVLSKFGIKNEALGIAGSDNLDKLYAILKEKHINHDFLVEAGTSTRECFVVLSDDTNGSTMIPEAGFTVSQTNKDNLLKQIAKKVKKEDMVVIAGSPPPHYTLSDFKELLRTVKATGAFLGCDNSGEYLNLAVEMGVDFIKPNEDEVIAILDEKTNSLEENIRTLAEKIPYLVVSLGAKGSICAHNGKLYQVIPPKVQERNDTGAGDVFVGAFIAGLAMNMPITETLKVATGCSASKVMQQDSSSFDLEAAGKLKNQVSIIQLEEREGHHHHHH” stands “not failed”; under “MSLKDFAGRTAFVTGGANGVGIGLVRQLLNQGCKVAIADIRQDSIDKALATLEAEGSGPEVMGVQLDVASREGFKMAADEVEARFGPVSILCNNAGVNLFQPIEESSYDDWDWLLGVNLHGVVNGVTTFVPRMVERVKAGEQKGGHVVNTASMAAFLAAGSPGIYNTTKFAVRGLSESLHYSLLKYEIGVSVLCPGLVKSYIYASDDIRPDALKGEVKPVDKTAVERLAGVHEFGMEPDVIGARVIEAMKANRLHIFSHPDHKEELREVFDEIIAEYQDYPKDPGYDQRVAFEKFRADSFAEARRQSRAADEGHHHHHH”, “not failed”; under “MSLKIAAFGEVMLRFTPPEYLMLEQTEQLRMNFVGTGVNLLANLAHFQLETALITKLPANRLGEAGKAALRKLGISDQWVGEKGDHIGSFFAEMGYGIRPTQVTYQNRHQSAFGISEAKDYDFEAFLAEVDMVHICGISLSLTEKTRDAALILAQKAHAYQKKVCFDFNYRPSLNTANSALFMRQQYERILPYCDIVFGSRRDLVELLGFIPREDLEGEAQETELIQRFMSQYNLEWFAGTTRSHSQNQNYLSGYLYTQNEYQQSEKRPLLNLDRIGAGDAYAAGILYGYSQNWSLEKAVTFATVNGVLAHTIQGDIPLTTVKQVNHVLEHPNIDLIREGHHHHHH”, “not failed”.

(Values after a protein production outcome set (Wang et al. 2014).)
